Assay results as given in publication PMC7469494 (Autophagy, 2019).

Biological target: T1, Vac8[Δ19–33] (full-length Vac8 lacking the H1 helix, residues 19–33) (S. cerevisiae, UniProt P39968 1-578, Δ19–33)
T1 sequence (looked up): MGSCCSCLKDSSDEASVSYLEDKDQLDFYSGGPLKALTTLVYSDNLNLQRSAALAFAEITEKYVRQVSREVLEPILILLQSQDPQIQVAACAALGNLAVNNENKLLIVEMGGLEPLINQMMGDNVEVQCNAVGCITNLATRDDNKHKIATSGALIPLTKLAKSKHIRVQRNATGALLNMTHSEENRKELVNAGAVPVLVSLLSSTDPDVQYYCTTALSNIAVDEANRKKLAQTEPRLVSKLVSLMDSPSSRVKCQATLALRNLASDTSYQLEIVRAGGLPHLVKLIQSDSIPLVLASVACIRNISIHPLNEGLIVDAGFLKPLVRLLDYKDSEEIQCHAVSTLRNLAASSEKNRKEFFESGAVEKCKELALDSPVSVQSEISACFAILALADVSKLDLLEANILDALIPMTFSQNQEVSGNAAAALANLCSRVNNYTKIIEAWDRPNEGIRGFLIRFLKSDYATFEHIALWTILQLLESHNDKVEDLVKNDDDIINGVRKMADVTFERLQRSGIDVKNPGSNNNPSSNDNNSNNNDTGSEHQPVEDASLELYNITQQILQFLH
Assay: ITC

B1: tAtg13 (Atg13 construct comprising residues 567–695) (domain or fragment, S. cerevisiae, UniProt Q06628 567-695, looked up)
chain: GGNSSTSALNSRRNSLDKSSNKQGMSGLPPIFGGESTSYHHDNKIQKYNQLGVEEDDDDENDRLLNQMGNSATKFKSSISPRSIDSISSSFIKSRIPIRQPYHYSQPTTAPFQAQAKFHKPANKLIDNG
Kd: 1460 nM
